Results as given in patent US20100310463A1 (AFFITECH RESEARCH, published 2010).

Experiments:
human EpCAM-Fc [1] = target: T1, human EpCAM-Fc (human, UniProt P16422 24-265); experiment: ELISA, plate coated with human EpCAM-Fc at 1 µg/ml, goat anti-human kappa-HRP, ABTS, Abs 405 nm
T1 construct: extracellular domain; also called human EpCAM/Fc fusion; recombinant human EpCAM antigen; not shown: human Fc region from IgG1; limits not readable
T1 sequence (looked up): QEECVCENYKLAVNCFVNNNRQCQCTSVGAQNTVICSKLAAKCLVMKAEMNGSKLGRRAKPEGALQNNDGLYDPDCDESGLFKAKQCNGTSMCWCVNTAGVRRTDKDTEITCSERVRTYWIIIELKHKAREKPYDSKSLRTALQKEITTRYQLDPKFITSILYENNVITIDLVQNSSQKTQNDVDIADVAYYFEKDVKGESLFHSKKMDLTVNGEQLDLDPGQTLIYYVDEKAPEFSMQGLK
Description: (§1) For ELISA of antibodies in IgG format, the MAXI-sorb plate was coated with 1 μg/ml (100 μl per well) of human or cynomolgus EpCAM-Fc in PBS overnight at 4° C. The plates were blocked with 3% BSA in PBS for 2 hrs. The IgGs to be tested were added in 2-fold dilutions from 133 nM to 32 fM and incubated for 1 hr at room temperature. For detection of bound IgG, a goat anti-human kappa-HRP antibody (Southern Biotech, cat no 2060-05) was added in 1:5000 dilution in block solution and incubated for 1 hr at room temperature.
(§2) The ELISA of antibodies in IgG format was developed using a 1-step ABTS Kit (Thermo Scientific prod #37615) and a 25 min incubation time. The absorbance was measured on a SLT SPECTRA plate reader. The software Prism (GraphPad, San Diego, Calif.) was used to estimate the affinities using a non-linear fit of one-site model on the retrieved ELISA data.

[2] = target: T2, EpCAM on the surface of EpCAM-positive tumor cell lines (UniProt P16422 24-314, limits assumed); experiment: flow cytometry on Kato III cells, RPE goat anti-human IgG detection, median fluorescence intensity
T2 construct: whole, on cells; One entry for the cell-borne antigen; the cell line of each result is named in the row; also called naturally EpCAM+ Kato III cell line; EpCAM-positive Kato III cells
T2 sequence (looked up): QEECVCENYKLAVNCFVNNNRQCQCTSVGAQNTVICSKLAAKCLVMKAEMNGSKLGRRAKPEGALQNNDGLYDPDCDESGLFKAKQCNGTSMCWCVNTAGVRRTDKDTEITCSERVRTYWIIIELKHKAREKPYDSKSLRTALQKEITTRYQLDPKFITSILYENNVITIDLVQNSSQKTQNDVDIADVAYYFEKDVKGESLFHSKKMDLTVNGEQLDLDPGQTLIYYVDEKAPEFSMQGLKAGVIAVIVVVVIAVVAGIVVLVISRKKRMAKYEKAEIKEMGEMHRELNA
Description: Flow cytometric analysis was performed to analyze binding of the 3-17I IgG to EpCAM-positive cells. As positive controls, anti-EpCAM chimeric (mouse variable/human constant domains) and fully human antibodies, MOC31 and MT201, respectively, were used.
The anti-green fluorescent protein (GFP) antibody was used as a negative control. For flow cytometry, Kato III cells (ATCC number (gastric carcinoma, ATCC number HTB-103)) were grown under standard conditions, harvested from the culture flasks, washed 2 times with PBS, re-suspended in PBS with 0.2% BSA and 0.09% NaN₃ and finally distributed at 1×10⁵ cells per well into V-shaped 96-well plates (Greiner Bio-One, Frickenhausen, Germany). Cells were centrifuged at 400×g for 5 min and then incubated at 4° C. for 45 min with 50 μL of each different antibody dilution (all dilutions made in PBS with 0.2% BSA and 0.09% NaN₃). After washing in PBS with 0.2% BSA and 0.09% NaN₃, the cells were stained with 10 μg/mL of RPE-conjugated goat anti-human IgG (AbDSerotec, Düsseldorf, Germany) for 30 min at 4° C. The stained cells were washed, re-suspended in 200 μL PBS with 0.2% BSA and 0.09% NaN₃ and transferred to a U-shaped 96-well plate (Corning, Schiphol-Rijk, The Netherlands) for analysis on EasyCyte flow cytometer (Guava Technologies, Hayward, Calif., USA).

[3] = target: T2, EpCAM on the surface of EpCAM-positive …; experiment: cell-based or functional assay
cynomolgus EpCAM-Fc = target: T3, cynomolgus EpCAM-Fc (cynomolgus; human, UniProt P01857 99-330 = IgG part); experiment: ELISA, plate coated with cynomolgus EpCAM-Fc at 1 µg/ml, goat anti-human kappa-HRP, ABTS, Abs 405 nm
T3 construct: also called Cynomolgus EpCAM/Fc fusion; recombinant cynomolgus EpCAM antigen
Description: as §1, §2

human EpCAM-Fc [4] = target: T1, human EpCAM-Fc; experiment: SPR, BIAcore T100, EpCAM-Fc coupled to CM5 chip (100 RU), 37 °C, 1:1 Langmuir model; SPR (BIAcore T100), 37 C, native EpCAM-Fc on the CM5 chip
Description: Binding of 3-17I to human and cynomolgus monkey EpCAM was analyzed using surface plasmon resonance (SPR) on a BIAcore T100 (BIAcore, Inc, Piscataway, N.J.). The extracellular domains of human or cynomolgus monkey EpCAM fused to human Fc (IgG1), were coupled to a CM5 chip (BIAcore, Inc, Piscataway, N.J.) at density of 100 RU. The SPR studies were performed using standard techniques at 37° C. with a flow rate of 50 μl/min. The data were analyzed using the 1:1 Langmuir binding model of the BIAcore software.

human EpCAM-Fc [5] = target: T1, human EpCAM-Fc; experiment: ELISA, plate coated with human EpCAM-Fc at 5 µg/ml, scFv detected with mouse anti-cMyc 9E10 and rabbit anti-mouse-HRP, TMB, Abs 450 nm
Description: FIGS. 10A and 10B show ELISA binding analysis of 3-17I scFv, 7-F17 scFv, 17-C20 scFv and 24-G6 scFv to human EpCAM-Fc (FIG. 10A) and to cynomolgus EpCAM-Fc (FIG. 10B). MAXI-Sorb plates were coated with human or cynomolgus EpCAM-Fc at a concentration of 5 μg/ml. The antibody was added in 2-fold dilutions from 667 nM to 3.2 nM.
For ELISA of antibodies in scFv format, the MAXI-sorb plate was coated with 5 μg/ml (100 μl per well) of human or cynomolgus EpCAM-Fc in PBS overnight at 4° C. The plates were blocked with 4% skimmed milk (Merck product no 1.15363.0500) in PBS for 2 hrs. […] For detection of bound scFv, a rabbit anti-mouse-HRP antibody (Dako, cat no P0260) was added in 1:3000 dilution in block solution and incubated for 1 hr at room temperature.

T3 sequence (P01857 other isoform, or with tags, fused parts or gaps limits assumed, form in doubt): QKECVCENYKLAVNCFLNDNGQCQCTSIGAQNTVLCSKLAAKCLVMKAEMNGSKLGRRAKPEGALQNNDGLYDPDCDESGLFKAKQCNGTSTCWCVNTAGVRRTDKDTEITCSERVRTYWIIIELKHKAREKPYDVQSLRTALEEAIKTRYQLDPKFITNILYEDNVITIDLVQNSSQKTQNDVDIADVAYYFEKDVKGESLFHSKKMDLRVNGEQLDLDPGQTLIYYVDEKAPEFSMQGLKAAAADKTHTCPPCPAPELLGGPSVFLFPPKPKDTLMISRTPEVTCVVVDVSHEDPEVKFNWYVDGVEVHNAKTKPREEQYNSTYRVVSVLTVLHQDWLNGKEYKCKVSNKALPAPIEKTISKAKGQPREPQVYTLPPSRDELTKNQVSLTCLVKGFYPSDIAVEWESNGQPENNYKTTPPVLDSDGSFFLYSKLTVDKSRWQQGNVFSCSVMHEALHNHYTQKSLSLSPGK

B1: 17-C20 IgG (antibody, V domains shown)
VH: QVQLVQSGAEVKKPGSSVKVSCKASGGTFSSYAISWVRQAPGQGLEWMGGIIPIFGTANYAQKFQGRVTITADESTSTAYMELSSLRSEDTAVYYCARGLLWNYWGQGTLVTVSS
VL: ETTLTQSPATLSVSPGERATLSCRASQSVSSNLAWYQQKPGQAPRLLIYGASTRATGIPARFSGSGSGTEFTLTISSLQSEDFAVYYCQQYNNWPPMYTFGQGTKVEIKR
notes: also called 17-C20 full length IgG
Question: Does B1 bind (human EpCAM-Fc [1])?
Answer: binds

B2: 3-17I IgG (antibody, V domains shown)
VH: QVQLVQSGAEVKKPGSSVKVSCKASGGTFSSYAISWVRQAPGQGLEWMGGIIPIFGTANYAQKFQGRVTITADESTSTAYMELSSLRSEDTAVYYCARGLLWNYWGQGTLVTVSS
VL: EIVMTQSPATLSVSPGERATLSCRASQSVSSNLAWYQQKPGQAPRLIIYGASTTASGIPARFSASGSGTDFTLTISSLQSEDFAVYYCQQYNNWPPAYTFGQGTKLEIKR
notes: also called 3-17I full length IgG
Question: For B2, which “EC50 (read off the curve)” value [2] is on record?
Answer: ~100 ng/mL

Question: What about the “EC50 (read off the curve)” value (human EpCAM-Fc [1]) of the same binder?
Answer: ~0.7 nM

Question: And the “ADCC EC50, BT-474 cells, human PBMC, E:T 20:1” value [3]?
Answer: 0.12 ng/mL

Question: What about the “ADCC EC50, MDA-MB-231 cells, human PBMC, E:T 20:1” value [3] of the same binder?
Answer: 15 ng/mL

Question: What about the “ADCC EC50, MDA-MB-453 cells, human PBMC, E:T 20:1” value [3] of the same binder?
Answer: 0.08 ng/mL

Question: And the “CDC EC50, KATO III cells, human serum” value [3]?
Answer: 0.28 ng/mL

Question: And the “CDC EC50, MT-3 cells, human serum” value [3]?
Answer: 0.38 ng/mL

Question: What about the “EC50 (read off the curve)” value (cynomolgus EpCAM-Fc) of the same binder?
Answer: ~0.6 nM

Question: What about the Kd (human EpCAM-Fc [4]) of the same binder?
Answer: 1 nM

Question: And the koff (human EpCAM-Fc [4])?
Answer: 0.03 s⁻¹

Question: What about the kon (human EpCAM-Fc [4]) of the same binder?
Answer: 3e+07 M⁻¹ s⁻¹

B3: 12-C15 IgG (antibody, V domains shown)
VH: QVQLVQSGAEVKKPGSSVKVSCKASGGTFSSYAISWVRQAPGQGLEWMGGIIPIFGTANYAQKFQGRVTITADESTSTAYMELSSLRSEDTAVYYCARGLLWNYWGQGTLVTVSS
VL: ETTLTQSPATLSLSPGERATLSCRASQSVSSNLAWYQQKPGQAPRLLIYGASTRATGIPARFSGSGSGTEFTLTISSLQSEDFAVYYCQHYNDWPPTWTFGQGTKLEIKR
notes: also called 12-C15 full length IgG
Question: Does B3 bind (human EpCAM-Fc [1])?
Answer: binds

B4: 16-G5 IgG (antibody, V domains shown)
VH: QVQLVQSGAEVKKPGSSVKVSCKASGGTFSSYAISWVRQAPGQGLEWMGGIIPIFGTANYAQKFQGRVTITADESTSTAYMELSSLRSEDTAVYYCARGLLWNYWGQGTLVTVSS
VL: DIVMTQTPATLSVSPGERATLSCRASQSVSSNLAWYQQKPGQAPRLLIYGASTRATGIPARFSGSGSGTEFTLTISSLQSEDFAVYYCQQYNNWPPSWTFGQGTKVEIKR
notes: also called 16-G5 full length IgG
Question: Does B4 bind (human EpCAM-Fc [1])?
Answer: binds

B5: MT201 IgG (antibody, V domains shown)
VH: EVQLLESGGGVVQPGRSLRLSCAASGFTFSSYGMHWVRQAPGKGLEWVAVISYDGSNKYYADSVKGRFTISRDNSKNTLYLQMNSLRAEDTAVYYCAKDMGWGSGWRPYYYYGMDVWGQGTTVTVSS
VL: ELQMTQSPSSLSASVGDRVTITCRTSQSISSYLNWYQQKPGQPPKLLIYWASTRESGVPDRFSGSGSGTDFTLTISSLQPEDSATYYCQQSYDIPYTFGQGTKLEIK
Question: Which “ADCC EC50, BT-474 cells, human PBMC, E:T 20:1” value [3] does the source give for B5 here?
Answer: 382 ng/mL

Question: And the “ADCC EC50, MDA-MB-453 cells, human PBMC, E:T 20:1” value [3]?
Answer: 7 ng/mL

Question: And the “CDC EC50, KATO III cells, human serum” value [3]?
Answer: 76 ng/mL

Question: What about the “CDC EC50, MT-3 cells, human serum” value [3] of the same binder?
Answer: 89 ng/mL

Question: What about the “CDC: fold higher antibody concentration needed than for 3-17I IgG (ratio of the EC50 values; KATO III and MT-3 cells, human serum)” value [3] of the same binder?
Answer: 250 fold

B6: MOC31 IgG (antibody, V domains shown)
VH: QVKLQQSGPELKKPGETVKISCKASGYTFTNYGMNWVKQAPGKGLKWMGWINTYTGESTYADDFKGRFAFSLETSASAAYLQINNLKNEDTATYFCARFAIKGDYWGQGTTVTVSS
VL: DIVLTQSPFSNPVTLGTSASISCRSTKSLLHSNGITYLYWYLQKPGQSPQLLIYQMSNLASGVPDRFSSSGSGTDFTLRISRVEAEDVGVYYCAQNLEIPRTFGGGTKLEIK
Question: With B6 as the binder, how does the “EC50 (read off the curve)” value [2] read?
Answer: ~300 ng/mL

Question: And the “EC50 (read off the curve)” value (human EpCAM-Fc [1])?
Answer: ~1 nM

B7: 3-17I scFv (scFv)
scFv: QVQLVQSGAEVKKPGSSVKVSCKASGGTFSSYAISWVRQAPGQGLEWMGGIIPIFGTANYAQKFQGRVTITADESTSTAYMELSSLRSEDTAVYYCARGLLWNYWGQGTLVTVSSKLSGSASAPKLEEGEFSEARVEIVMTQSPATLSVSPGERATLSCRASQSVSSNLAWYQQKPGQAPRLIIYGASTTASGIPARFSASGSGTDFTLTISSLQSEDFAVYYCQQYNNWPPAYTFGQGTKLEIK
notes: expressed in E. coli TG1 from pHOG21; also called scFv format of 3-17I; not shown: C-terminal c-myc and His6 tags from pHOG21, with their junction residues
Question: Does B7 bind (human EpCAM-Fc [5])?
Answer: binds

B8: 7-F17 scFv (scFv)
scFv: QVQLVQSGAEVKKPGSSVKVSCKASGGTFSSYAISWVRQAPGQGLEWMGGIIPIFGTANYAQKFQGRVTITADESTSTAYMELSSLRSEDTAVYYCARGLLWNYWGQGTLVTVSSKLSGSASAPKLEEGEFSEARVETTLTQSPATLSVSPGERATLSCRASQSVSSNLAWYQQKPGQAPRLLIYGASTRATGIPARFSGSGSGTEFTLTISSLQSEDFAVYYCQQYNNWPPGFTFGPGTKVDIK
Question: Does B8 bind (human EpCAM-Fc [5])?
Answer: binds

B9: 17-C20 scFv (scFv)
scFv: QVQLVQSGAEVKKPGSSVKVSCKASGGTFSSYAISWVRQAPGQGLEWMGGIIPIFGTANYAQKFQGRVTITADESTSTAYMELSSLRSEDTAVYYCARGLLWNYWGQGTLVTVSSKLSGSASAPKLEEGEFSEARVETTLTQSPATLSVSPGERATLSCRASQSVSSNLAWYQQKPGQAPRLLIYGASTRATGIPARFSGSGSGTEFTLTISSLQSEDFAVYYCQQYNNWPPMYTFGQGTKVEIK
Question: Does B9 bind (human EpCAM-Fc [5])?
Answer: binds

B10: 24-G6 scFv (scFv)
scFv: QVQLVQSGAEVKKPGSSVKVSCKASGGTFSSYAISWVRQAPGQGLEWMGGIIPIFGTANYAQKFQGRVTITADESTSTAYMELSSLRSEDTAVYYCARGLLWNYWGQGTLVTVSSKLSGSASAPKLEEGEFSEARVETTLTQSPATLSVSPGERATLSCRASQSVSSNLAWYQQKPGQAPRLLIYGASTRATGIPARFSGSGSGTEFTLTISSLQSEDFAVYYCQKYNNWPPAFTFGPGTKVDIK
Question: Does B10 bind (human EpCAM-Fc [5])?
Answer: binds
